{
  "source": "paper PMC10357585",
  "proteins": {"B1": {"name": "TcHGXPRT (Trypanosoma cruzi strain CL Brener) (protein)", "chain": "MISSQQAMVHVVSRNAEGVIVVDGKAYPMAEELVATESVIQRSIKAVAKQIADFYRPLSHRDTHGGGGVAPISDENPLIIISVLKGSYIFTADMVRYLGDYGLPHVVDFLRVASYRGTSSTNKMKLLAETQFKALRGKHVLILEDIVDSGKTLRYILDKVQREHQPATLKVCVLADKPGGRRVTMQPDFVCLTVPNKYVIGYGFEVNDRFRCFRHIFTLRPGEARRYPAHL"}},
  "substrate": "Nc1nc2nc[nH]c2c(=O)[nH]1",
  "test": "Initial rate studies of TcHGXPRT, GMP biosynthesis",
  "type": "biochemical, Trypanosoma cruzi",
  "details": "other: variable substrate PRPP (1–78 μM) at fixed Gua levels; pH 8.3; 37.0 °C",
  "data": [
    {"protein": "B1", "values": [
      {"measurement": "Km", "result": "28 ± 3", "unit": "µM"},
      {"measurement": "kcat", "result": "0.44 ± 0.02", "unit": "s⁻¹"}
    ]}
  ]
}
